Results reported in US20060222645A1 (LEXICON PHARMACEUTICALS, published 2006).

T1: His-SUMO-gs4 (mouse, UniProt Q9Z1P8 99-151)
T1 construct: Translated in vitro (RTS E. coli); also called gs4 fragment of mANGPTL4
T1 sequence: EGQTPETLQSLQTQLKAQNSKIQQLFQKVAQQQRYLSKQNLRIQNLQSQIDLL

T2: His-SUMO-gs2 (mouse, UniProt Q9Z1P8 49-98)
T2 construct: Translated in vitro (RTS E. coli); also called gs-2 fragment of mANGPTL4
T2 chain: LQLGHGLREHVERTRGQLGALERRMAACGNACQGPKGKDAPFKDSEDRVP

T3: full-length human ANGPTL4 (human, UniProt Q9BY76 26-406)
T3 construct: also called hANGPTL4
T3 sequence: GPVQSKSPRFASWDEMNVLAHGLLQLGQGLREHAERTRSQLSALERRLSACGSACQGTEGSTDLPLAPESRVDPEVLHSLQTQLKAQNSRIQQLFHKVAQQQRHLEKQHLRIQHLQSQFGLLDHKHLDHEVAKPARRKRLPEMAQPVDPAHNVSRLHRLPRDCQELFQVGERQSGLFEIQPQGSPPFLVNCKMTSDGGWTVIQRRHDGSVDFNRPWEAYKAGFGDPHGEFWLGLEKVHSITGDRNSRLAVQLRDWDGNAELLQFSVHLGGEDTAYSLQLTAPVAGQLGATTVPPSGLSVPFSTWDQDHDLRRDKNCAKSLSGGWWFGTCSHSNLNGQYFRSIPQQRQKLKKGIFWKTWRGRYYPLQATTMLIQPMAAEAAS

T4: N-mANGPTL4 (mouse)
T4 construct: E. coli construct; also called portion of the amino terminal domain of mouse ANGPTL4
T4 chain: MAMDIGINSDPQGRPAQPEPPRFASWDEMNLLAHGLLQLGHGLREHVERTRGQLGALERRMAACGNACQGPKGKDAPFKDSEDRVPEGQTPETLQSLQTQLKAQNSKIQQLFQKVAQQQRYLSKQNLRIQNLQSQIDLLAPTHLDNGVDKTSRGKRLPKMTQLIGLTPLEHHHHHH

T5: N-hANGPTL4 (human)
T5 construct: E. coli construct
T5 chain: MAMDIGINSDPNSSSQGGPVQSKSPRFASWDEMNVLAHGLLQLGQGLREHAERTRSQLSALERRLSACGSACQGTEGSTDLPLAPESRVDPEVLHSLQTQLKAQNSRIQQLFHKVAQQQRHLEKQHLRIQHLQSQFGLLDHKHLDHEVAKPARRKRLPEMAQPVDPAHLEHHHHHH

T6: His-SUMO-gs1 (mouse, UniProt Q6TMA8 24-73 (rat entry))
T6 construct: Translated in vitro (RTS E. coli); also called gs-1 fragment of mANGPTL4
T6 chain: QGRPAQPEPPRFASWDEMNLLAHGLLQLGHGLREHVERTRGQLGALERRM

T7: His-SUMO-gs5 (mouse, UniProt Q9Z1P8 124-180)
T7 construct: Translated in vitro (RTS E. coli); also called gs5 fragment of mANGPTL4
T7 sequence: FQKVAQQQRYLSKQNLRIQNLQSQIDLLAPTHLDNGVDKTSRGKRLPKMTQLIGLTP

T8: His-SUMO-gs3 (mouse, UniProt Q9Z1P8 74-123)
T8 construct: Translated in vitro (RTS E. coli); also called gs-3 fragment of mANGPTL4
T8 chain: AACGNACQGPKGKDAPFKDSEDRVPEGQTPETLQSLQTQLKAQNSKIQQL

T9: bovine LPL (bovine, UniProt P11151 29-478)
T9 sequence (looked up): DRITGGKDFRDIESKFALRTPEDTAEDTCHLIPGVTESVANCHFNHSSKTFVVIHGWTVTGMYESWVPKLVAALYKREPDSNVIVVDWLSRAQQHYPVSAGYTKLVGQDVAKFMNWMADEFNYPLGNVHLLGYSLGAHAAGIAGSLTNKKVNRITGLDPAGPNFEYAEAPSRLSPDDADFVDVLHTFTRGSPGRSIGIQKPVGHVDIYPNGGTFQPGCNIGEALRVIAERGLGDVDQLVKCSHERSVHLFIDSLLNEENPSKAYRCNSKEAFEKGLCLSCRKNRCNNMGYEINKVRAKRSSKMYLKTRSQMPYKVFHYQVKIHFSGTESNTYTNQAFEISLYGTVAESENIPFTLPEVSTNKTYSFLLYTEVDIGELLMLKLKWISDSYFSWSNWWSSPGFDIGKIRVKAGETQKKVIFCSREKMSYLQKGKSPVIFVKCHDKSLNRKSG


Tests used:
His-SUMO-gs4 = molecular target: T1, His-SUMO-gs4; assay: Western blot of in vitro translated fragments
Protocol: (§1) The in vitro translated protein fragments were separated on four SDS-PAGE gels, along with N-mANGPTL4, and transferred to four nitrocellulose blots. The blots were then blocked for 1 to 2 hours with TBS containing 5% nonfat dried milk (TBS-NFDM). After blocking, the blots were rinsed with TBS containing 0.5% Tween-20 (TBS-Tween) four times for five minutes each rinse. The blots were then incubated in TBS-NFDM containing tester antibody (14D12, 15F2, 90B4, or anti-His) overnight at 4° C. The blots were rinsed with TBS-Tween four times for five minutes each rinse and then incubated in TBS-NFDM containing a 1:6000 dilution of HRP-coupled goat anti-mouse antibody (Southern Biotechnology Associates) for 1 hour. The blots were rinsed with TBS-Tween four times for five minutes each rinse and then developed using SuperSignal West Pico Chemiluminescent Substrate (Pierce Biotechnology) as directed by the manufacturer. Alternatively, blots can be developed using the Western Breeze™ Immunodetection Kit (Invitrogen).
(§2) Antibody 14D12 bound only to N-mANGPTL4 in that experiment. […] That result may be due to the fact that 14D12 is a weaker binder than 15F2 and 90B4. See, e.g., Example S and FIG. 33. Antibody 15F2 bound His-SUMO-gs1. […] Antibody 90B4 bound to His-SUMO-gs2 and His-SUMO-gs4.

His-SUMO-gs2 = molecular target: T2, His-SUMO-gs2; assay: Western blot of in vitro translated fragments
Protocol: as §1, §2

[1] = molecular target: T3, full-length human ANGPTL4; assay: hybridoma screening ELISA, coated antigen 0.25 ug/ml
N-mANGPTL4 = molecular target: T4, N-mANGPTL4; assay: ELISA, coated antigen 0.25 ug/ml, antibody 0 to 10 ug/ml
Protocol: (§3) Antibodies were screened for binding to mouse ANGPTL4 using ELISA. Ninety-six well Nunc Maxi-Sorp ImmunoPlates™ (Nunc #446612, Roskilde, Denmark) were coated by adding 50 μl per well of a 2.5 μg/ml solution of ANGPTL4 in coating buffer (BupH™ Carbonate-Bicarbonate Buffer, Pierce #28382, Rockford, Ill.) overnight at 4° C. Coating buffer was removed and the plate was blocked by adding 250 μl per well of blocking buffer (1% Blocker™ BSA, Pierce #37525, in PBS) for two hours at room temperature. 50 μl of hybridoma supernatant (undiluted or diluted in blocking buffer) or isolated anti-ANGPTL4 antibody (undiluted or diluted in blocking buffer) were added to the wells and incubated for at least one hour at room temperature. Wells were washed four times with PBS/Tween 20. 100 μl of diluted (1:5,000 to 1:10,000) HRP-conjugated goat anti-mouse IgG (Pierce #31446) were added to the wells and incubated for one hour at 37° C. Wells were washed six times with PBS/Tween 20. Anti-ANGPTL4 antibody was detected by adding 50 μl of TMB (tetramethyl benzidine) solution (ImmunoPure® TMB Substrate Kit, Pierce #34021) to the wells for 5 to 10 minutes. Plates were read spectrophotometrically at 450 nm using a microplate reader (Molecular Devices, Sunnyvale, Calif.).
(§4) The binding affinity of antibodies 90B4, 15F2, and 14D12 were determined for each of N-mANGPTL4 and N-hANGPTL4 by ELISA. N-hANGPTL4 was expressed and purified from bacteria as described above for N-mANGPTL4 in Example Q. A polynucleotide sequence encoding amino acids 24 to 175 of human ANGPTL4 was cloned into expression vector pET22b(+), which encodes an N-terminal pelB leader sequence and a C-terminal His tag. Following translation of the protein and removal of all but 11 amino acids of the pelB sequence, N-hANGPTL4 has the sequence shown in SEQ ID NO: 11. That sequence contains 11 amino acids from the pelB sequence, followed by amino acids 24 to 175 of human ANGPTL4 (underlined in Table 6), followed by a 2 amino acid linker and the His tag. ELISAs were performed as discussed above in Example K, except the plates were coated with 50 μl of 0.25 μg/ml of protein (N-mANGPTL4 or N-hANGPTL4) per well. Binding was measured at 0 μg/ml, 0.08 μg/ml, 0.4 μg/ml, 2 μg/ml, and 10 μg/ml antibody.

N-hANGPTL4 = molecular target: T5, N-hANGPTL4; assay: as above
Protocol: as §3, §4

His-SUMO-gs1 = molecular target: T6, His-SUMO-gs1; assay: Western blot of in vitro translated fragments
Protocol: as §1, §2

His-SUMO-gs5 = molecular target: T7, His-SUMO-gs5; assay: Western blot of in vitro translated fragments
Protocol: as §1, §2

His-SUMO-gs3 = molecular target: T8, His-SUMO-gs3; assay: Western blot of in vitro translated fragments
Protocol: as §1, §2

bovine LPL = molecular target: T9, bovine LPL; assay: cell-based or functional assay

binding result (His-SUMO-gs4) | binding result (His-SUMO-gs2) | binding result [1] | binding result (N-mANGPTL4) | binding result (N-hANGPTL4) | binding result (His-SUMO-gs1) | binding result (His-SUMO-gs5) | binding result (His-SUMO-gs3) | IC50 (concentration required for 50% inhibition) of LPL activity, release of 3H-oleic acid (bovine LPL) [nM] | Binder
binds | binds | binds | binds | binds | – | – | – | – | monoclonal antibody 90B4 (antibody, V domains shown) VH: EVQLQQSGPELMKPGASVKMSCRTSGYTFTDYSIHWVKQSHGKRLEWIGYINPYNGDTYCDQNFKGKATLTFNKASSTAYMEIPRLTSDDSAVYYCTRWKTIQAPFAYWGQGTLVTVSA VL: EIQMTQSPSSMSASLGDRITITCQATQDIVKNLNWYQQKPGKPPSFLIHYATELAEGVPSRFSGSGSGSDYSLTISNLESEDFADYYCLQSYDFPYTFGGGTKLEIN
– | – | – | binds | binds | binds | – | – | – | monoclonal antibody 15F2 (antibody, V domains shown) VH: EVKLVESGGGLVKPGGSLKLSCAASGFAFSRYDMSWVRQTPEKRLEWVATISTDGSYTYYPDSVKGRFTISRDNARNTLYLQMGSLRSEDTALYFCVRHEQSTIVPHYPLDYWGQGTSVTVSS VL: EIQMTQSPSSMSASLGDRITITCQATQDIVKNLNWYQQKPGKPPSFLIHYATELAEGVPSRFSGSGSGSDYSLTISNLESEDFADYYCLQSYDFPYTFGGGTKLEINR
no binding | no binding | – | binds | binds | no binding | no binding | no binding | – | monoclonal antibody 14D12 (antibody, V domains shown) VH: EVKLVESGGGLVKPGGSLKLSCAASGFAFSRYDMSWVRQTPEKRLEWVATISTGGSYTYYPDSVKGRFTISRDNARNTLYLQMGSLRSEDTALYFCVRHEQSTVVPHYPLDYWGQGTSVTVSS VL: DIVMTQSPATLSVTPGDRVSLSCRASQSIGDYLHWYQQKSHESPRLLIKYASQSISGIPSRFSGSGSGSDFTLSIDSVEPEDVGVYYCQNGHSFPFTFGSGTKLEIKR
– | – | – | – | – | – | – | – | ~25 | full-length mouse ANGPTL4 (ligand) QGRPAQPEPPRFASWDEMNLLAHGLLQLGHGLREHVERTRGQLGALERRMAACGNACQGPKGKDAPFKDSEDRVPEGQTPETLQSLQTQLKAQNSKIQQLFQKVAQQQRYLSKQNLRIQNLQSQIDLLAPTHLDNGVDKTSRGKKLSKMTQLIGLTSNATHLHRPARDCQELFQEGERHSGLFQIQPLGSPPFLVNCEMTSDGGWTVIQRRLNGSVDFNQSWEAYKDGFGDPQGEFWLGLEKMHSITGDRGSQLAVQLQDWDGNAKLLQFPIHLGGEDTAYSLQLTEPTANELGATNVSPNGLSLPFSTWDQDHDLRGDLNCAKSLSGGWWFGTCSHSNLNGQYFHSIPRQRQERKKGIFWKTWKGRYYPLQATTLLIQPMEATAAS
